T1: DUE-B (Homo sapiens, UniProt Q8TEA8 SEQ:1-209)
T1 sequence: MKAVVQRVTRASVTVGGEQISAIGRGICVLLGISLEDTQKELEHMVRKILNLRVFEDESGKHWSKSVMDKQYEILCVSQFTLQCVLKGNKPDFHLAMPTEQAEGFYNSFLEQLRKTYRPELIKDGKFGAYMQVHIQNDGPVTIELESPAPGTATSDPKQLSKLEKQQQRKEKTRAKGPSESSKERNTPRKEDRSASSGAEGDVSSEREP

B1: c-myc DUE/ARS 123 bp probe (dsDNA)
DNA 1: GAAGGAATTCATGAGAAGAATGTTTTTTGTTTTTCATGCCGTGGAATAACACAAAATAAAAAATCCCGAGGGAATATACATTATATATTAAATATAGATCATTTCAGGGAGCTCGAGAAACAA
DNA 2: TTGTTTCTCGAGCTCCCTGAAATGATCTATATTTAATATATAATGTATATTCCCTCGGGATTTTTTATTTTGTGTTATTCCACGGCATGAAAAACAAAAAACATTCTTCTCATGAATTCCTTC
B2: DUE 30-mer probe (dsDNA)
DNA 1: GGAATATACATTATATATTAAATATAGATC
DNA 2: GATCTATATTTAATATATAATGTATATTCC

Key:
DUE-B [1] = biological target: T1, DUE-B; assay: EMSA; strongly retarded complex without poly dI-dC; 30 C 30 min; reduced by poly dI-dC; conditions: tags: 6His, baculovirus/Sf9 expressed, Ni-NTA; label: 32P (alpha-32P-dCTP by PCR)
Procedure: An electrophoretic mobility shift assay (EMSA) was used to test whether the baculovirus expressed DUE-B protein could bind to DNA in vitro. When added to a radiolabeled c-myc DUE probe in the absence of nonspecific competitor (poly dI-dC), DUE-B produced a strongly retarded protein-DNA complex band (FIG. 14, lanes 1-4). […] When HeLa cell cytoplasmic extract was added to the c-myc DUE probe in the absence of poly dI-dC an intense band was observed that was not affected by the addition of DUE-B (lanes 13-16). With the addition of the nonspecific competitor poly dI-dC, however, a novel band appeared that was dependent on the addition of DUE-B (asterisks, lanes 17-24). […] Similar to the results obtained when cytosol was added to the c-myc DUE probe, when nuclear extract from HeLa cells was added to the c-myc DUE probe in the absence of poly dI-dC an intense band was observed that was not affected by the addition of DUE-B (lanes 25-28). In the presence of competitor for nonspecific binding, however, a novel band appeared that was dependent on the addition of DUE-B (brackets, lanes 32 and 36). […] In FIG. 14, a 123 bp fragment of the c-myc replication origin containing the DUE/ARS region was labeled with alpha-³²P-dCTP by PCR. 25 fmol were mixed with recombinant DUE-B purified by Ni-NTA affinity chromatography from SF9 insect cells. […]

DUE-B [2] = biological target: T1, DUE-B; assay: FP; saturable polarization; 2 nM oligo; 100 mM Tris pH 7.5 (printed mN), 800 mM NaCl, 10 mM EDTA; reversed by poly dI-dC; 16-epiestriol (E2850) stimulates; conditions: tags: N-terminal 6His and V5, baculovirus expressed; label: FITC at 3' end of both strands via C6 spacer
Procedure: A mastermix is prepared consisting of 1× reaction buffer, 2 nM labeled oligo and 0.125 or 0.250 ug DUE-B per 100 ul of mastermix. Compounds (in this case steroids) are added to the bottom of a 96 well plate. 100 ul of mastermix is added to each well and allowed to equilibrate for 30 sec. Fluorescence polarization is then measured.
In FIG. 23A, the effect of increasing concentrations of DUE-B on the polarization of dsDNA was assessed. As expected, polarization of the dsDNA becomes saturated as the DUE-B protein concentration increases. Note that at 0.125 and 0.250 μg of DUE-B a reasonable shift in polarization of dsDNA is seen. Using these set conditions (0.250 ug DUE-B), the effect of adding a non-specific DNA inhibitor (pdldC) to the reaction (FIG. 23B) was tested. […] It is observed that the polarization was stable for at least 2 hours, making this assay very feasible for high throughput screening.

Row | Binder | binding result (DUE-B [1]) | binding result (DUE-B [2])
1 | B1 | binds | –
2 | B2 | – | binds

— patent US20040219554, “Dna binding protein” (published 2004)
